Literature values in article PMC4976022.

Molecular target: HPr (Escherichia coli) (UniProt P0AA04)

## EIN N-terminal domain (from UniProt P08839)
  Kd: 7 µM
